Data: patent US20190046659A1

Target: human GPC3 on GPC3-positive cells (HepG2, Huh-7, SK-Hep-1 GPC3) (human) (UniProt P51654)
Assay: cell-based or functional assay

Substance	killing rate of CAR T cells on Huh-7 cells, effector target ratio 1:3	killing rate of CAR T cells on Huh-7 cells, effector target ratio 1:1
chimeric antigen receptor GC33-28BBZ (GC33 scFv-CD28a-CD28b-CD137-CD3 zeta) on T cells	23%	–
chimeric antigen receptor GC33-28Z (GC33 scFv-CD28a-CD28b-CD3 zeta) on T cells	6%	22%
